Data on six molecules can be found in patent US20220127354A1 (Amgen, published 2022).

The target in test [1] is T1, rhCDH19(1-43)::FLAG::rhCDH19(44-141)::raCDH19(140-247)::rhCDH19(250-772) (construct V, ra EC2) (rhesus macaque/rat chimera, UniProt Q9H159 44-772 (human entry)).
T1 construct: leader (1-43 of the entry) left out
T1 chain: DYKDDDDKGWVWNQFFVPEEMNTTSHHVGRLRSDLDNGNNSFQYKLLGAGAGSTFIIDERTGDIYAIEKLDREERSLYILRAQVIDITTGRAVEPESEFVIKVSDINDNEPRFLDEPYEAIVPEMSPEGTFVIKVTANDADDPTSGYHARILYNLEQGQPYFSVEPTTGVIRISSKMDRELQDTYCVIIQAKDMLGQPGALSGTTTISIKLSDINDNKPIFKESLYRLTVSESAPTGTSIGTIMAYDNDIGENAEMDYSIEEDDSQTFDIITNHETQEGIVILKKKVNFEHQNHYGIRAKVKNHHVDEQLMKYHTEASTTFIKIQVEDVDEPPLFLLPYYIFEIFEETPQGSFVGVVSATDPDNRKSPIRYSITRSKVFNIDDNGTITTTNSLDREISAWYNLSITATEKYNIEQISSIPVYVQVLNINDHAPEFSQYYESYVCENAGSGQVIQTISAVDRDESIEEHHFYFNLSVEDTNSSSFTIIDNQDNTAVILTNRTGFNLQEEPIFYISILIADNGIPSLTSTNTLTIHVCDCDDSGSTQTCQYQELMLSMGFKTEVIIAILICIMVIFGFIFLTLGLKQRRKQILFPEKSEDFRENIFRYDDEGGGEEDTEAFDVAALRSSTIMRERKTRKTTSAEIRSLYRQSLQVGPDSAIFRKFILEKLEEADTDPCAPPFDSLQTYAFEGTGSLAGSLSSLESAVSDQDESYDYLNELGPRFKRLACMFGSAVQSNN
The test can be described thus: flow cytometry, transfected 293T cells, 2 mM CaCl2. (In general: A flow cytometer gives signals particle by particle.)
Description: (§1) The following binding assay was completed in presence of 2 mM CaCl₂). […] Cells were then washed one time and the amount of cell associated Alexa647-labelled Ab was quantitated by flow cytometry. The experiments included mock transfected controls.

The target of a further test is T2, Human Cadherin-19 (human, UniProt Q9H159 44-772).
T2 construct: also called CDH19; huCDH19
The test can be described thus: FACS, endogenous CDH-19 on CHL-1 and Colo699 tumor cells.

The target of test [2] is T3, muCDH19(44-770) with Flag tag (construct I, Mu EC1-5) (mouse).
T3 construct: leader left out; the entry starts at residue 44; also called Mo EC1-5; mouse Cadherin19
T3 chain: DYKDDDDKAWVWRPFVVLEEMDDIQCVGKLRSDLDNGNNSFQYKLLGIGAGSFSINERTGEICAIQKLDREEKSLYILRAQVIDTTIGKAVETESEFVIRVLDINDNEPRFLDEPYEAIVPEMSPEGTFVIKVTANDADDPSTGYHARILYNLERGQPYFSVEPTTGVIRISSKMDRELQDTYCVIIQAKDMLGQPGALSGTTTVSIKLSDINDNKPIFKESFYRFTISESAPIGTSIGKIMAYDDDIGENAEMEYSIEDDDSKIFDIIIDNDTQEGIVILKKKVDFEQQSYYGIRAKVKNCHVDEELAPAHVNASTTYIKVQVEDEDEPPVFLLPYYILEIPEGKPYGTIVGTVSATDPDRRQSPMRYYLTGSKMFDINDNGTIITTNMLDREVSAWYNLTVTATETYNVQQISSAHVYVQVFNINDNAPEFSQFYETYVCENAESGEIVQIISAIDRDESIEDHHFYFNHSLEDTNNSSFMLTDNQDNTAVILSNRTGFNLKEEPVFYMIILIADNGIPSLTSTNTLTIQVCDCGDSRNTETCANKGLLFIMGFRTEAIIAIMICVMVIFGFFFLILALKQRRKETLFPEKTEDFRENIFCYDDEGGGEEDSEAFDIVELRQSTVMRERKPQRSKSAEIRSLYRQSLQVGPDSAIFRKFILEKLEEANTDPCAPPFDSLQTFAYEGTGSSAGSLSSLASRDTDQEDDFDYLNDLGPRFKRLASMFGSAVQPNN
The test can be described thus: flow cytometry, transfected 293T cells, 2 mM CaCl2.
Description: as §1

In test [3] the target is T4, muCDH19(44-139)::huCDH19(142-364)::muCDH19(363-770) with Flag tag (construct E, Hu EC2-3) (human/mouse chimera).
T4 construct: leader left out; the entry starts at residue 44; also called C137847
The test can be described thus: flow cytometry, transfected 293T cells.
Excerpt: (§2) The experiment included assaying the anti-CDH19 antibodies against mouse Cadherin19 to determine suitability for binning on these human/mouse chimeras.

The target in test [4] is T5, muCDH19(44-247)::huCDH19(250-364)::muCDH19(363-770) with Flag tag (construct F, Hu EC3) (human/mouse chimera).
T5 construct: leader left out; the entry starts at residue 44; also called C137911
The test can be described thus: flow cytometry, transfected 293T cells.
Excerpt: as §2

In test [5] the target is T6, muCDH19(44-770)::huCDH19(271) with leader and FLAG (construct Z) (human/mouse chimera).
T6 construct: leader (1-43 of the entry) left out
T6 chain: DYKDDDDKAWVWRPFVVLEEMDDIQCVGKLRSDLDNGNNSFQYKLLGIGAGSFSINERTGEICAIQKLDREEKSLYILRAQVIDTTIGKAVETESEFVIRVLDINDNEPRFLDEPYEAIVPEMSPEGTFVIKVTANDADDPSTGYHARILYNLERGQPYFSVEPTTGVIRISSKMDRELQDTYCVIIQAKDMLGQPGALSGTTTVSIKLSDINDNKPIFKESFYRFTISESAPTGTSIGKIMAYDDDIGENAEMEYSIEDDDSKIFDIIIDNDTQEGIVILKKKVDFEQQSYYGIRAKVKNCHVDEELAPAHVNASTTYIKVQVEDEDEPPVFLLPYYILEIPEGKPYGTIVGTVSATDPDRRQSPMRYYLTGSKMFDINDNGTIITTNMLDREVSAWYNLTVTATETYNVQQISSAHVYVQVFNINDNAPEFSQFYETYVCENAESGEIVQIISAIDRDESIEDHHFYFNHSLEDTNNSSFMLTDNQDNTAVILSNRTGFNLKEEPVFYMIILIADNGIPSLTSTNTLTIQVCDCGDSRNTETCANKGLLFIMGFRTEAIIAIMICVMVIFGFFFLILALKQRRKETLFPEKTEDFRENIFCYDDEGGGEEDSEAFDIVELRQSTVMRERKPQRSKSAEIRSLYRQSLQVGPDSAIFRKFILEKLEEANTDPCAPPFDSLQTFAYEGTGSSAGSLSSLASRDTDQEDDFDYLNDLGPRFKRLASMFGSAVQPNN
The test can be described thus: flow cytometry, transfected 293T cells, 2 mM CaCl2.
Description: as §1

Description for Human Cadherin-19: FACS binding assays were performed to evaluate the binding of the anti-Cadherin-19 receptor specific antibodies to endogenous Cadherin-19 receptor expressed on the CHL-1 tumor cell lines.
FACs assays were performed by incubating hybridoma supernatants with 10,000 to 25,000 cells in PBS/2% Fetal bovine serum/2 mM Calcium Chloride at 4° C. for one hour followed by two washes with PBS/2% Fetal bovine serum/2 mM Calcium Chloride. Cells were then treated with florochrome-labeled secondary antibodies at 4° C. followed by one wash. The cells were resuspended in 50 μl of PBS/2% FBS and antibody binding was analyzed using a FACSCalibur™ instrument.

B1: hu anti-<huCDH19> 4A9 (Ab ID 13589) (antibody, human IgG1, lambda, V domains shown)
VH: QVQLQESGPGLVKPSETLSLTCTVSGGSISGYYWSWIRQPPGKGLEWFAYFSYSGSTNYNPSLKSRVTLSVDTSKNQFSLKLSSVTAADTAVYYCARNWAFHFDFWGQGTLVTVSS
VL: QSVLTQPPSVSGAPGQRVTISCTGSSSNIGTGYAVHWYQQFPGTAPKLLIYGNNNRPSGVPDRFSGSKSGTSASLAITGLQAEDEADYYCQSYDSRLSGWVFGGGTKLTVLG
notes: huIgG1z / huLLC-C1; Bin 1
As to B1, the binding result in test [1] is listed as “no binding (tested: 5 ug/ml)”; with Human Cadherin-19, “binds”; in test [2], “no binding (tested: 5 ug/ml)”.

B2: anti-CDH19 antibody 2G6 (Ab ID 13588) (antibody, human IgG1, lambda, V domains shown)
VH: QVQLVESGGGVVQPGRSLRLSCAASGFTFSSYGMHWVRQAPGKGLEWVAFIWYDGSNKYYADSVKDRFTISRDNSKNTLYLQMKSLRAEDTAVYYCARRAGIIGTIGYYYGMDVWGQGTTVTVSS
VL: SYELTQPPSVSVSPGQTASITCSGDRLGEKYTCWYQQRPGQSPLLVIYQDTKRPSGIPERFSGSNSGNTATLTISGTQAMDEADYYCQAWDSSTVVFGGGTKLTVLG
notes: Bin 4
As to B2, the binding result (in test [3]; in test [4]; with Human Cadherin-19; in test [5]) was “binds” each time.

B3: hu anti-<huCDH19> 23A10.3 (1-474)(L92Q) VH::huIgG1z + 23A10.3 (1-231)(C42S) VL::huLLC-C2 (Ab ID 14077) (antibody, V domains shown)
VH: QVQLVESGGGVVQPGRSLRLSCAASGFTFSRYGIHWVRQAPGKGLEWVAVIWYDGSNKYYADSVKGRFTISRDNSKNTLYLQMNSLRAEDSAVYYCARRAGIPGTTGYYYGMDVWGQGTTVTVSS
VL: SYELTQPPSVSVSPGQTASITCSGDRLGEKYVSWYQQKPGQSPILVIYQDNKWPSGIPERFSGSNSGNTATLTISGTQAMDEADYYCQAWDSSTVVFGGGTKLTVLG
notes: Engineered variant of 23A10; the entries already carry the changes; Bin 4
As to B3, the binding result in test [2] was “binds”.

B4: hu anti-<huCDH19> 26D1.1 (Ab ID 13882) (antibody, human IgG1, lambda, V domains shown)
VH: QVQLVQSGAEVKKPGASVKVSCKASRYTFTSYYMSWVRQAPGQGLEWMGIIHPSGGDTTYAQKFQGRVTMTGDTSTSTVYMELSSLRSEDTAVYYCARGGIKLWLHFDYWGQGTLVTVSS
VL: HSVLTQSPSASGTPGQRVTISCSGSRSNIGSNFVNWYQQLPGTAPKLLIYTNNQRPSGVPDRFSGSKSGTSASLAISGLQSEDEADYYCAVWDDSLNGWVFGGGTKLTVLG
notes: huIgG1z / huLLC-C2; Bin 2
Consider B4, for which the binding result in test [1] is “no binding (tested: 5 ug/ml)”; with Human Cadherin-19, “binds”; in test [2] it was “no binding (tested: 5 ug/ml)”.

B5: hu anti-<huCDH19> 25F8.1 (1-469)(F90Y) VH::huIgG1z + 25F8.1 (1-235)(K45Q,S102A,D111E) VL::huLLC-C2 (Ab ID 14096) (antibody, V domains shown)
VH: QVQLVQSGAEVKKPGASVKVSCKASGYTFTSYYIHWVRQAPGQGLEWMGIINPSGGSTRYAQKFQGRVTMTRDTSTSTVYMELSSLRSEDTAVYYCARGGIQLWLHFDYWGQGTLVTVSS
VL: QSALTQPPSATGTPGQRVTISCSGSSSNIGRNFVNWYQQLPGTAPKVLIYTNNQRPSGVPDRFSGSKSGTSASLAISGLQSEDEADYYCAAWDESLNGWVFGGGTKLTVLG
notes: Engineered variant of 25F8; the entries already carry the changes; Bin 2
In the case of B5, the binding result in test [1] is recorded as “no binding (tested: 5 ug/ml)”.

B6: hu anti-<huCDH19> 4B10 (Ab ID 13590) (antibody, V domains shown)
VH: QVQLVESGGGVVQPGRSLRLSCAASGFTFSSYDMHWVRQAPGKGLEWVAVISYDGTNEYYADSVKGRFTISRDTSKNTLYLQMNSLRAEDTAVYYCARERYFDWSFDYWGQGTLVSVSS
VL: EIVLTQSPGTLSLSPGERATLSCRASQSVSNTYLAWYHQRPGQAPRLLIYGASSRATGIPDRFSGSGSGTDFALTISSLEPEDFAVYYCQQYSNSWTFGQGTKVEIKR
notes: huIgG1z / huKLC; Bin 4
For the molecule B6, the binding result in test [3] is reported as “binds”; in test [4], “binds”; with Human Cadherin-19 it was “binds”; in test [2], “no binding (tested: 5 ug/ml)”; in test [5], “no binding (tested: 5 ug/ml)”.
